Publication PMC12120875

Target: VqERF1B-mCherry (Vitis quinquangularis accession 'Danfeng-2')
Test: FRET or BRET

FRET efficiency: 32%
Substance: VqERF062-GFP (natural protein)
